Measurements as given in PMC9974451, “Transportin 1 is a major nuclear import receptor of the nitric oxide synthase interacting protein” (The Journal of Biological Chemistry, 2023).
Values belong to the binder of their own block, whether it stands above or below them.

Key:
Settings in all cases: both partners purified
[1] = target: T1, His-S-importin β (full length) (UniProt Q14974 1-876); experiment: pull-down; 100 pmol His-NOSIP-MBP (WT or K78A/K79A) or MBP immobilised on amylose beads, 100 pmol purified His-tagged NTR, with or without 300 pmol RanQ69L(1-180)-GTP, 3 h, 4 °C, TPB; SDS-PAGE, Coomassie
T1 construct: called full-length importin β (FL) in the fragment experiment; the ΔN fragment ends at aa 876; also called His-importin β; S-His-importin β

[2] = target: T1, His-S-importin β (full length); experiment: pull-down; competition: 100 pmol His-S-importin β immobilised on S-protein beads, 100 pmol His-NOSIP with 0, 100, 300, 1000 pmol His-importin α, or the other way around; Coomassie
His-importin 13 = target: T2, His-importin 13 (UniProt O94829 1-963); experiment: differential scanning fluorimetry; His-tagged NTR at 0.5 μM in TPB with 2 mM DTT, His-NOSIP or Ubc9 titrated in 18 steps from 0.05 to 5 μM, 5x SYPRO Orange, 25 to 90 °C; Tm plotted against concentration, exponential fit
T2 construct: importin 13; also called Imp 13; His-Imp13; source: E. coli JM109, purified (Ni-NTA agarose, size exclusion chromatography)
T2 sequence (looked up): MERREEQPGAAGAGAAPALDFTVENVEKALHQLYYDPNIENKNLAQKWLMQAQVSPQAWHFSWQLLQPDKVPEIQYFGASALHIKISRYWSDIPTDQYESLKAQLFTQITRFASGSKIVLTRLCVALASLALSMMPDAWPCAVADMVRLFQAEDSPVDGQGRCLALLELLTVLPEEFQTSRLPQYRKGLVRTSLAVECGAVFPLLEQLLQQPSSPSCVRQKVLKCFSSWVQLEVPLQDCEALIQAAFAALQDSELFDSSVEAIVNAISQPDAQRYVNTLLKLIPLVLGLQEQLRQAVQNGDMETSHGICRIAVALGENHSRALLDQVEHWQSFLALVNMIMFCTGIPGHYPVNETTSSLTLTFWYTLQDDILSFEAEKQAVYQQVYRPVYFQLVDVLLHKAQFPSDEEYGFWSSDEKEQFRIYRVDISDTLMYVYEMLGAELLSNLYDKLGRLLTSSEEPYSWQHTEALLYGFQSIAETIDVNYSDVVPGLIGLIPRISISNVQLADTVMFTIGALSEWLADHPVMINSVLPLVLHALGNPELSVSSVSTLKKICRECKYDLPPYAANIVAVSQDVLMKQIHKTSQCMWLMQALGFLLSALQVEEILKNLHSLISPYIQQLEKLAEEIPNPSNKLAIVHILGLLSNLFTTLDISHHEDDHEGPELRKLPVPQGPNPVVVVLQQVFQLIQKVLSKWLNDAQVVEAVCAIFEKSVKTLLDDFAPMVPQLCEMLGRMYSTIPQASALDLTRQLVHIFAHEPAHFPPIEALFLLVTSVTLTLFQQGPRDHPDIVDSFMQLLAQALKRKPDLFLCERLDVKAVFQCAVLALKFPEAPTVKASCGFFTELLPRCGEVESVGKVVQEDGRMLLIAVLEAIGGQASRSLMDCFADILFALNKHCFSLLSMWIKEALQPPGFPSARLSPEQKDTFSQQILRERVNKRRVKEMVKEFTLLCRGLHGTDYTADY

[3] = target: T3, His-TNPO1 (transportin 1) (UniProt Q92973-2 1-890); experiment: as above
T3 construct: transportin 1; The length 890 is printed for the MBP construct only; also called His-transportin 1
T3 sequence (looked up): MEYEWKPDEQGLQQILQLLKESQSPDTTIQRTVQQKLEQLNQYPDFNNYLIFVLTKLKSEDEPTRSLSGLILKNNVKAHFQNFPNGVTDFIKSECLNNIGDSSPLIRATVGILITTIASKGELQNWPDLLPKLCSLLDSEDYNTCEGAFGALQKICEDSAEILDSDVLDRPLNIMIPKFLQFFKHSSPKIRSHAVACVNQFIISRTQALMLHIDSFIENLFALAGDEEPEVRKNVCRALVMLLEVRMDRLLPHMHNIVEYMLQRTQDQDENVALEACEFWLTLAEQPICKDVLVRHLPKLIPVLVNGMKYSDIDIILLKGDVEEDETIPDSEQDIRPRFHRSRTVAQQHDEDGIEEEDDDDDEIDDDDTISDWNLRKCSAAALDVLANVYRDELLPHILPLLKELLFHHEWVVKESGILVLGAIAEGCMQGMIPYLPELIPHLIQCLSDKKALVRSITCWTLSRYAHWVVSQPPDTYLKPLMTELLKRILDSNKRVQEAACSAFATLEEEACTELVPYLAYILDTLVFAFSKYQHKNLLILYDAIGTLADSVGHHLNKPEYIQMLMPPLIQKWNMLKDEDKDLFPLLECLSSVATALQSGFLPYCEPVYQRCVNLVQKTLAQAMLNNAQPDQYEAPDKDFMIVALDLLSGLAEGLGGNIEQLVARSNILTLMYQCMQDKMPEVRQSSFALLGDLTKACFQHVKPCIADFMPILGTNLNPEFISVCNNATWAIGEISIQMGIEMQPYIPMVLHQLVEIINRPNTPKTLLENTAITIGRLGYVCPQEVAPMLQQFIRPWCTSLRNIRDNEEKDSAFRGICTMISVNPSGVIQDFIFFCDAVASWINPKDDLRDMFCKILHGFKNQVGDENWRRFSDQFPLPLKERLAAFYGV

[4] = target: T1, His-S-importin β (full length); experiment: pull-down; 100 pmol GST-IBB, GST-NOSIP or GST immobilised on glutathione Sepharose beads, 100 pmol His-S-tagged importin β FL, ΔN or ΔC; Western blot with anti-importin β
[5] = target: T4, importin β ΔC (aa 1-396), His-S-tagged (UniProt Q14974 1-396); experiment: as above
T4 construct: also called Imp β ΔC; N-terminal (ΔC) fragment

[6] = target: RanQ69L (aa 1-180) loaded with GTP (UniProt P62826 1-180, Q69L); experiment: pull-down; GST-M9 or GST-NOSIP immobilised on glutathione Sepharose beads, MBP-tagged TNPO1 FL, ΔN or ΔC, with or without RanQ69L(1-180)-GTP; Coomassie

T1 sequence (Q14974 whole entry, the tested form may be a part): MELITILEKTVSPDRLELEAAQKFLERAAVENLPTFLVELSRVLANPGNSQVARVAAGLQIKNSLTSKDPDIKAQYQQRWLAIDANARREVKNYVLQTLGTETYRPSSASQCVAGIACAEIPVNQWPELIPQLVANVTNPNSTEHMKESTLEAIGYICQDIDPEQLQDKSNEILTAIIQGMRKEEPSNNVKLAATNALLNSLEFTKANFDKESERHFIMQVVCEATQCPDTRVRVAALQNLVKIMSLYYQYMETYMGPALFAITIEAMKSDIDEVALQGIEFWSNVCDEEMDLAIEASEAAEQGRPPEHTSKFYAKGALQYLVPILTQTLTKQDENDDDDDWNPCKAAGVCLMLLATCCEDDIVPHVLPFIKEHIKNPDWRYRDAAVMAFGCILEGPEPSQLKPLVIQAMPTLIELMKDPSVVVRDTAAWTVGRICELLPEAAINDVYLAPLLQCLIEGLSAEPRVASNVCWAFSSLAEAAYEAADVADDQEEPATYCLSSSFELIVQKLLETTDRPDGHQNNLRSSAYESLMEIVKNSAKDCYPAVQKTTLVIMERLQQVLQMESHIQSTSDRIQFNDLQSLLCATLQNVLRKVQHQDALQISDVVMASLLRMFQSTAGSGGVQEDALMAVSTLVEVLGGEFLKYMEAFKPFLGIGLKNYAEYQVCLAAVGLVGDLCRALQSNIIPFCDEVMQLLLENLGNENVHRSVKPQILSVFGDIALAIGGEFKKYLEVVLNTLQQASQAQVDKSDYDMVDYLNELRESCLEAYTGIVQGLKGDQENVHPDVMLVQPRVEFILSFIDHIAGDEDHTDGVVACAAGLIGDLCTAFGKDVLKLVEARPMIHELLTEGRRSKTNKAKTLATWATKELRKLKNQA
T4 sequence (Q14974 1-396, stated change not applied): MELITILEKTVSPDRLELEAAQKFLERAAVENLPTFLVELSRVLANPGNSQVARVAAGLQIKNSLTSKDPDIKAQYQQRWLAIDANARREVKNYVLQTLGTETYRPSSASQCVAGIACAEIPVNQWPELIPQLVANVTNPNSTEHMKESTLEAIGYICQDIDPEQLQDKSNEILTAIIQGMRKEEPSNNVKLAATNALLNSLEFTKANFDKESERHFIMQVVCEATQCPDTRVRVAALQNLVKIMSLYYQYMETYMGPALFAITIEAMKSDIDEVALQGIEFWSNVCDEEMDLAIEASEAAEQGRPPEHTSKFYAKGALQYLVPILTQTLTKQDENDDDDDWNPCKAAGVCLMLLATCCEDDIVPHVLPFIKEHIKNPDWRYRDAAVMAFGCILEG

binding result [1]: binds
B1: His-NOSIP-MBP (nitric oxide synthase interacting protein) (natural protein, UniProt Q9Y314 1-301, looked up)
chain: MTRHGKNCTAGAVYTYHEKKKDTAASGYGTQNIRLSRDAVKDFDCCCLSLQPCHDPVVTPDGYLYEREAILEYILHQKKEIARQMKAYEKQRGTRREEQKELQRAASQDHVRGFLEKESAIVSRPLNPFTAKALSGTSPDDVQPGPSVGPPSKDKDKVLPSFWIPSLTPEAKATKLEKPSRTVTCPMSGKPLRMSDLTPVHFTPLDSSVDRVGLITRSERYVCAVTRDSLSNATPCAVLRPSGAVVTLECVEKLIRKDMVDPVTGDKLTDRDIIVLQRGGTGFAGSGVKLQAEKSRPVMQA
notes: Name is printed in the order His-NOSIP-MBP; also called wildtype (WT) His-NOSIP-MBP; immobilized NOSIP; source: E. coli JM109, purified (Ni-NTA agarose, amylose resin, dialysis)

binding result [2]: binds
Kd (His-importin 13): 417 ± 100 nM
Kd [3]: 233 ± 60 nM
B2: His-NOSIP (natural protein, UniProt Q9Y314 1-301, looked up)
chain: MTRHGKNCTAGAVYTYHEKKKDTAASGYGTQNIRLSRDAVKDFDCCCLSLQPCHDPVVTPDGYLYEREAILEYILHQKKEIARQMKAYEKQRGTRREEQKELQRAASQDHVRGFLEKESAIVSRPLNPFTAKALSGTSPDDVQPGPSVGPPSKDKDKVLPSFWIPSLTPEAKATKLEKPSRTVTCPMSGKPLRMSDLTPVHFTPLDSSVDRVGLITRSERYVCAVTRDSLSNATPCAVLRPSGAVVTLECVEKLIRKDMVDPVTGDKLTDRDIIVLQRGGTGFAGSGVKLQAEKSRPVMQA
notes: Lacks the MBP tag; source: E. coli JM109, purified (Ni-NTA agarose, size exclusion chromatography)

binding result [4]: binds
binding result [5]: binds
B3: GST-NOSIP (natural protein, UniProt Q9Y314 1-301, looked up)
chain: MTRHGKNCTAGAVYTYHEKKKDTAASGYGTQNIRLSRDAVKDFDCCCLSLQPCHDPVVTPDGYLYEREAILEYILHQKKEIARQMKAYEKQRGTRREEQKELQRAASQDHVRGFLEKESAIVSRPLNPFTAKALSGTSPDDVQPGPSVGPPSKDKDKVLPSFWIPSLTPEAKATKLEKPSRTVTCPMSGKPLRMSDLTPVHFTPLDSSVDRVGLITRSERYVCAVTRDSLSNATPCAVLRPSGAVVTLECVEKLIRKDMVDPVTGDKLTDRDIIVLQRGGTGFAGSGVKLQAEKSRPVMQA
notes: also called immobilized GST-NOSIP; source: E. coli JM109, purified (glutathione Sepharose, size exclusion chromatography)

binding result [6]: binds
B4: MBP-TNPO1 FL (aa 1-890) (natural protein)
chain: MEYEWKPDEQGLQQILQLLKESQSPDTTIQRTVQQKLEQLNQYPDFNNYLIFVLTKLKSEDEPTRSLSGLILKNNVKAHFQNFPNGVTDFIKSECLNNIGDSSPLIRATVGILITTIASKGELQNWPDLLPKLCSLLDSEDYNTCEGAFGALQKICEDSAEILDSDVLDRPLNIMIPKFLQFFKHSSPKIRSHAVACVNQFIISRTQALMLHIDSFIENLFALAGDEEPEVRKNVCRALVMLLEVRMDRLLPHMHNIVEYMLQRTQDQDENVALEACEFWLTLAEQPICKDVLVRHLPKLIPVLVNGMKYSDIDIILLKGDVEEDETIPDSEQDIRPRFHRSRTVAQQHDEDGIEEEDDDDDEIDDDDTISDWNLRKCSAAALDVLANVYRDELLPHILPLLKELLFHHEWVVKESGILVLGAIAEGCMQGMIPYLPELIPHLIQCLSDKKALVRSITCWTLSRYAHWVVSQPPDTYLKPLMTELLKRILDSNKRVQEAACSAFATLEEEACTELVPYLAYILDTLVFAFSKYQHKNLLILYDAIGTLADSVGHHLNKPEYIQMLMPPLIQKWNMLKDEDKDLFPLLECLSSVATALQSGFLPYCEPVYQRCVNLVQKTLAQAMLNNAQPDQYEAPDKDFMIVALDLLSGLAEGLGGNIEQLVARSNILTLMYQCMQDKMPEVRQSSFALLGDLTKACFQHVKPCIADFMPILGTNLNPEFISVCNNATWAIGEISIQMGIEMQPYIPMVLHQLVEIINRPNTPKTLLENTAITIGRLGYVCPQEVAPMLQQFIRPWCTSLRNIRDNEEKDSAFRGICTMISVNPSGVIQDFIFFCDAVASWINPKDDLRDMFCKILHGFKNQVGDENWRRFSDQFPLPLKERLAAFYGV
notes: transportin 1, full length printed as aa 1-890 (890 residues); also called full-length TNPO1; source: E. coli BL21DE3, purified (amylose resin, size exclusion chromatography)
